The target of this assay is mixture of three Der p 2 specific recombinant human IgE clones H10, H12, P4E (human) (UniProt P01854). As to the kind of experiment: RBL-SX38 IgE displacement, FACS.

For orientation: EC50 means the concentration giving half of the maximal effect.

Chain of mixture of three Der p 2 specific recombinant human IgE clones H10, H12, P4E (human) (P01854 other isoform, or with tags, fused parts or gaps): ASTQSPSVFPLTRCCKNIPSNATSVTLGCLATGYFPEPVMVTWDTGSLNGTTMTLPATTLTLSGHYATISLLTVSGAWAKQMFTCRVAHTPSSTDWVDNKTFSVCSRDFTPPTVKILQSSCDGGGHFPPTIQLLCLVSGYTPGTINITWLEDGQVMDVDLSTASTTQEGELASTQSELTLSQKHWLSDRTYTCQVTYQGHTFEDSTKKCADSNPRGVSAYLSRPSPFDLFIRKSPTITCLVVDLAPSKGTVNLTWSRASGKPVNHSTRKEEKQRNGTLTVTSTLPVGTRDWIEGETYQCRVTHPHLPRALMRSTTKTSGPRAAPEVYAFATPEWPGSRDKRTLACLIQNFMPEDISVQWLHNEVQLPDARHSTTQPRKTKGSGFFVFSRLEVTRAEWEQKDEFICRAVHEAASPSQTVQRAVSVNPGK

B1: CIgG4D1A1(G4S)2 (Fc fusion)
chain 1: GPPCPPCPAPEFLGGPSVFLFPPKPKDTLMISRTPEVTCVVVDVSQEDPEVQFNWYVDGVEVHNAKTKPREEQFNSTYRVVSVLTVLHQDWLNGKEYKCKVSNKGLPSSIEKTISKAKGQPREPQVYTLPPCQEEMTKNQVSLWCLVKGFYPSDIAVEWESNGQPENNYKTTPPVLDSDGSFFLYSRLTVDKSRWQEGNVFSCSVMHEALHNHYTQKSLSLSLGKGGGGSGGGGSDVQLQESGGGLVQAGGSLRLSCAASGLTFSRCDMGWFRQAPGKEREFVARISANGASTHYADFVKGRFTISRDNAKNTVYLQMNYLKPEDTAVYICAAARVPVTWQLYDYWGQGTQVTVS
chain 2: GPPCPPCPAPEFLGGPSVFLFPPKPKDTLMISRTPEVTCVVVDVSQEDPEVQFNWYVDGVEVHNAKTKPREEQFNSTYRVVSVLTVLHQDWLNGKEYKCKVSNKGLPSSIEKTISKAKGQPREPQVCTLPPSQEEMTKNQVSLSCAVKGFYPSDIAVEWESNGQPENNYKTTPPVLDSDGSFFLVSRLTVDKSRWQEGNVFSCSVMHEALHNHYTQKSLSLSLGKGGGGSGGGGSEVQLLESGGGLVQPGGSLRLSCAASGFTFGNYDMAWVRQAPGKRPEWVSSIDTGGDITHYADSVKGRFTISRDNAKNTLYLQMNSLRPEDTAVYWCATDEEYALGPNEFDYYGQGTLVTVSS
As for B1, the EC50 came out at 87.2 nM and the Max effect/effect 1 µM came out at 96%.

B2: CIgG4D1A1(RS) (Fc fusion)
chain 1: GPPCPPCPAPEFLGGPSVFLFPPKPKDTLMISRTPEVTCVVVDVSQEDPEVQFNWYVDGVEVHNAKTKPREEQFNSTYRVVSVLTVLHQDWLNGKEYKCKVSNKGLPSSIEKTISKAKGQPREPQVYTLPPCQEEMTKNQVSLWCLVKGFYPSDIAVEWESNGQPENNYKTTPPVLDSDGSFFLYSRLTVDKSRWQEGNVFSCSVMHEALHNHYTQKSLSLSLGKRSDVQLQESGGGLVQAGGSLRLSCAASGLTFSRCDMGWFRQAPGKEREFVARISANGASTHYADFVKGRFTISRDNAKNTVYLQMNYLKPEDTAVYICAAARVPVTWQLYDYWGQGTQVTVS
chain 2: GPPCPPCPAPEFLGGPSVFLFPPKPKDTLMISRTPEVTCVVVDVSQEDPEVQFNWYVDGVEVHNAKTKPREEQFNSTYRVVSVLTVLHQDWLNGKEYKCKVSNKGLPSSIEKTISKAKGQPREPQVCTLPPSQEEMTKNQVSLSCAVKGFYPSDIAVEWESNGQPENNYKTTPPVLDSDGSFFLVSRLTVDKSRWQEGNVFSCSVMHEALHNHYTQKSLSLSLGKRSEVQLLESGGGLVQPGGSLRLSCAASGFTFGNYDMAWVRQAPGKRPEWVSSIDTGGDITHYADSVKGRFTISRDNAKNTLYLQMNSLRPEDTAVYWCATDEEYALGPNEFDYYGQGTLVTVSS
With B2, the Max effect/effect 1 µM came out at 16%.

B3: CIgG4D1A1(G4S)1 (Fc fusion)
chain 1: GPPCPPCPAPEFLGGPSVFLFPPKPKDTLMISRTPEVTCVVVDVSQEDPEVQFNWYVDGVEVHNAKTKPREEQFNSTYRVVSVLTVLHQDWLNGKEYKCKVSNKGLPSSIEKTISKAKGQPREPQVYTLPPCQEEMTKNQVSLWCLVKGFYPSDIAVEWESNGQPENNYKTTPPVLDSDGSFFLYSRLTVDKSRWQEGNVFSCSVMHEALHNHYTQKSLSLSLGKGGGGSDVQLQESGGGLVQAGGSLRLSCAASGLTFSRCDMGWFRQAPGKEREFVARISANGASTHYADFVKGRFTISRDNAKNTVYLQMNYLKPEDTAVYICAAARVPVTWQLYDYWGQGTQVTVS
chain 2: GPPCPPCPAPEFLGGPSVFLFPPKPKDTLMISRTPEVTCVVVDVSQEDPEVQFNWYVDGVEVHNAKTKPREEQFNSTYRVVSVLTVLHQDWLNGKEYKCKVSNKGLPSSIEKTISKAKGQPREPQVCTLPPSQEEMTKNQVSLSCAVKGFYPSDIAVEWESNGQPENNYKTTPPVLDSDGSFFLVSRLTVDKSRWQEGNVFSCSVMHEALHNHYTQKSLSLSLGKGGGGSEVQLLESGGGLVQPGGSLRLSCAASGFTFGNYDMAWVRQAPGKRPEWVSSIDTGGDITHYADSVKGRFTISRDNAKNTLYLQMNSLRPEDTAVYWCATDEEYALGPNEFDYYGQGTLVTVSS
Regarding B3, the half-maximal effective concentration (EC50) was 65.8 nM and the Max effect/effect 1 µM was 96%.

These data come from patent publication US20250171562A1.
